Assay results: patent publication US20230242902A1, “A HIGHLY ERROR-PRONE […] R[…] FOR TARGETED CONTINUOUS EVOLUTION IN VIVO” (The Regents of the University of California, priority 2017, published 2023)
Numbering of substitutions follows the chain as printed. Numbers in names are those of the source. Where “and” joins values, the source holds several entries; their conditions need not be identical. Identical values can stand only once.

B1: Y424E: TP-DNAP2 variant (protein, listed as Kluyveromyces lactis)
chain: MNDELAFLNSQIDDYSDDIEFLRTEVFRINRYSKSIYSLMKNSSKEAIKETIEFNKYGQEIHSKIKEKEISLIEAIKLMEKKYKYLRSLNKTKDKSKKKKIHTKDIETLKTIYKTKADFDIRNFKNAETFTYENYSLLIPSEKELIDLIPEIEEDYSYYFYVSLTITGPTIFGGVTRKVPIIDTYGDINKDFYNKIKENITKVLDRVPFYEEKESEIICKKVLITLTVNKWESIDKWYKNVKSKSKKFKDFTLFLASDTSKNCVQQCVEYLGGKWNTNYSLEKMIPQQKIVTYIPLLMDIQYVQSMEDLISDFDEPNTDCKNIARLLKWNGHMGVITKIDKDVKINRIQRKRIIDVENKEVKEVFFDIESFSDETKHQIPYLICWSYLGELYYRTGKNCIKEFVEEILSYNVDIILYAWYGSGEDYQHVLPYMKSKCIKDKYIIKNNMITYGELYYENAIIYLKDPYLFILTSLDKASKAFNVINKGEFPHSIIHSWEDLNKILPNWVKIQKRMIEYKDDNKLNIYYKNIEIFENDRNYNTILENAIEYCKVDVLAMEKVWIKFKKLLEKNLNITVSVKTFTLSQLSMKIMESKLPKYVKLYVPTLEEYSKIRNAIYGGRVISKNGIYEENIVYADVVSLYPSAMKLLKHSYGKPKLVDYIDFEKHGIYRVTLLNKHDQEPKNYLNFVPRRINRKLTWEWFKIHEGWYHTYDLIIAKSEGFDIYCHEGFEYPEKDYIFNDFIDTLYSMKETHTACSCEEQPCPIRMVAKIALNGGGYGKFVQKPIDKEIYIVKRDVVAGECDKLQENENGEICIGKRLVKRPLFYNLDSENYDKMIIEKEDEPIYSTQCGISILSASRYRLYKLCKQFENIDIIYSDTDSIFVKQKSVDWELFKSKCGSELGQLDSTIDDTKNAIISKMYIGGAKMYAFEYLNNKNKLITKLHCKGVPNYMLSLNQFKYLMESPDNTIAYKFEIIRRKLVNVITKDLIKDIKQT
B2: TP-DNAP1-4-1: TP-DNAP1 variant (V574F, I777K, L900S), encoded by SEQ ID NO:10 (protein, listed as Kluyveromyces lactis)
chain: MDYKDKALNDLRNVYADFDSLPLDFRQILIKDRATLLQKEDVEKKILERQEDAKKYAEYLKQSEIPERISLPNIKRHKGVSISFEETSEDMVLEPRPFIFDGLNIRCFRRETIFSLKNKILNMVKESSSFKNVSRQSVSFMYFKIFNKGKVIASTKSVNIYEDKIDERLEDLCNNFDDVLKKIIDVTYGYESLFVSETYSYVIFYAKSIYFPQPRCVNNWGNNIPNILTFDSFKLFTANKNNVSCIKQCSRFLWQKDFNTLEEMIEYKNGNICIVTPQLHINDVRDIKSFNDIRLYSESPIKTFSVIDNTITYLFYFKEHLGVIFNITKSRHDRRVTKFSPLSKFSDVKNITVCFDIESYFDPEKESNQVNIPFICCASIIYNKVIGNIVDFEGRDCVAQMIEYVVDICGELNISSVELIAHNGGGYDFHYILSSMYNPAAIKNILIRNNSFISFNFAHDGVKFSVKDSYSFLLCSLANASKAFLNEETFKKTDFPHHDLKTADDLYKVYKEWSSVNTEINHVVEKEKLLITSEHIVNFTKNDKSKTLIEWSKDYCRNDVLVLSKVWLEFKNAFEDIFNCELVDQTMTLAGLSYKLFQANMPFDVELRHPNKEDYFNMREALIGGRCISVNGIYKDVLCLDVKSLYPASMAFYDQPYGSFKRVSSRPKDELGIYYVRVTPNRNNKSNFFPIRSHNKITYNNFEESTYIAWYTNVDIDIGLSEGHNIEYIPFDSYGNIGYSWSKKGKIFEKYIKDVLYKLKIKYEKQNNKVKRNVIKKIMNSLWGKFAQKWVNFEYFIKSEDDIDFESEEAYKIWDTDFMLIKKIKESTYSSKPIQNGVFTLSWARYHMKSIWDAGAKEGAECIYSDTDSIFVHKEHFKKNAKFMLNGLKVPIIGSEVGQSELECEFDKLLCAGKKQYMGFYTYFQDGKPCIKEKKRFKGIPSNYIIPELYAHLLSGADKEAKIQFLKFRREWGSVKGYIENKTVKAT
B3: L474D: TP-DNAP2 variant (protein)
chain: B2 chain with L474D, F574V, K777I, S900L
B4: L474V: TP-DNAP2 variant (protein)
chain: B2 chain with L474V, F574V, K777I, S900L
B5: Y431H, L640Y, I777K, W814N: TP-DNAP1 variant, encoded by SEQ ID NO:8 (protein, listed as Kluyveromyces lactis)
chain: B2 chain with Y431H, F574V, L640Y, W814N, S900L
B6: L474A: TP-DNAP2 variant (protein)
chain: B2 chain with L474A, F574V, K777I, S900L

Tests used:
Assay type in all cases: cell-based, S. cerevisiae
[1] = system: p2-encoded leu2*; experiment: p2 leu2* fluctuation tests in GA-Y021 (p2 mutation rate reporter strain); conditions: for Per-base substitution rate pf p2: TP-DNAP2 variant in trans, wt TP-DNAP2 in cis, 36 replicates, (95% C.I.); for Fold increase: p2 substitution rate over no variant in trans
From the text: For fluctuation tests used to measure p2 mutation rates, leu2* served as a marker for detecting mutational events. leu2* is a disabled version of LEU2, where Q180 is replaced with a TAA stop codon. Q180 is a permissive site where mutation to any other codon other than TAG and TGA results in functional reversion to LEU2. These mutational events can be detected by plating scores of parallel cultures on medium lacking leucine and counting the number distribution of functional LEU2 mutants.
For TP-DNAP2 library screening, each library member was subjected to small-scale leu2* fluctuation tests with six replicates. 190 library members from each yeast library transformation were arrayed and inoculated into liquid SC medium lacking uracil and histidine, and passaged three times at 1:10,000 dilutions. mKate2 fluorescence was measured at every passage on a microplate reader (TECAN Infinite® 200 PRO, settings: λex=588, λem=633) to track p2 copy number stabilization. To perform fluctuation tests, each library member was diluted 1:10,000 into liquid SC medium buffered to pH 5.8 and lacking uracil, histidine, tryptophan, and dilutions were split into six 100 μL replicates. Cultures were grown for 48 hours at 30° C. to reach saturation. Saturated cultures were washed with 200 μL 0.9% NaCl to remove residual leucine and resuspended in 35 μL of 0.9% NaCl. 10 μL of this resuspension was spot plated onto solid SC medium buffered to pH 5.8 and lacking uracil, histidine, tryptophan and leucine. Spot plates were allowed to dry and incubated at 30° C. Colonies were counted after 5 days. Colony counts were used to calculate the expected number of LEU2 functional mutants (m), using the p0 method (Foster, 2006, Methods Enzymol, 409:195-213).
To precisely measure p1 and p2 per-base substitution mutation rates, several modifications were made to the small-scale protocol. First, 36 replicates were performed for reconfirmation of candidate TP-DNAP2 mutators, and 48 replicates for genomic and mutual orthogonality experiments. Titers were also determined for each strain after spot plating by pooling the residual volume from 4 replicates and plating dilutions on YPD. The expected number of LEU2 functional mutants (m) was determined by the Ma-Sandri-Sarkar maximum likelihood estimator (as calculated by the FALCOR tool and corrected for partial plating (Foster, 2006, Methods Enzymol, 409:195-213; Sarkar et al., 1992, Genetica, 85:173-179; Hall et al., 2009, Bioinformatics, 25:1564-1565). The mean mKate2 fluorescence was determined from 50,000 event counts on Attune™ NxT Flow Cytometer and converted to p2 copy number by using a calibration curve. To determine per-base substitution rates, the corrected m was normalized to the average cell titer, the p2 copy number, and the target size for functional leu2* reversion (2.33 bp). 95% confidence intervals were similarly scaled.
To identify error-prone TP-DNAP2s, a small library of TP-DNAP2s diversified at locations hypothesized to be responsible for DNAP fidelity was screened. […] Four distinct site-saturation mutagenesis libraries were generated, each diversifying S370, Y424, L474, or F882 in TP-DNAP2 encoded on pGA55-reTP-DNAP2. Due to unsuccessful attempts to generate a strain with a full deletion of p2-encoded TP-DNAP2 and simultaneous integration of mKate, URA3, and leu2*, each library was transformed into GA-Y021 for convenient screening. However, since GA-Y021 still encodes wt TP-DNAP2 on p2-delORF1-mUL*, p2 mutation rates measured in this format are the result of in tandem replication of p2 by wt TP-DNAP2 and each TP-DNAP2 variant encoded in trans. 6-fold coverage of each library was maintained by picking 190 yeast colonies and passaging under selection for URA3 to stabilize the copy number of p2-delORF1-mUL* in the presence of the newly introduced TP-DNAP2 variants. […]

[2] = system: genomic URA3 gene; experiment: Fluctuation tests of the genomic URA3 gene in the presence of TP-DNAP1 variants; conditions: URA3 locus, strain harbouring p1 and the TP-DNAP1 variant
Procedure: Fluctuation tests of the genomic URA3 gene were performed to determine genomic per-base substitution rates, as previously described (Ravikumar et al., 2014). Fluctuation data were analyzed by the maximum likelihood method, as described for large-scale p1 fluctuation tests. Phenotypic mutation rates were divided by the target size for loss of function of URA3 via base pair substitution (Lang et al., 2008), to yield per-base substitution rates. 95% confidence intervals were similarly scaled by these factors. All data related to genomic URA3 fluctuation tests are fully described in Table 5.

[3] = system: p1-encoded leu2 (Q180*); experiment: Large-scale p1 fluctuation tests of p1-encoded leu2 (Q180*), per-base substitution rate; conditions: for Mutation rate (s.p.b.): per-base substitution rate, p1-encoded leu2 (Q180*), measurements taken after 90 generations
Outline: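 Per-base substitution rate = phenotypic mutation rate (maximum likelihood, per cell) divided by flow-cytometry p1 copy number and by 2.33 ways to revert the ochre codon. Revertants on leucine-free medium; replicates with likely pre-existing mutants dropped.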

[4] = system: p1; experiment: p1 copy number by p1-encoded mKate2 fluorescence; conditions: sustained by TP-DNAP1 variant
Outline: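 p1 copy number came from mKate2 fluorescence of saturated OR-Y24 cultures (triplicates, regrown from 1:10,000), read by flow cytometry and converted through a linear curve calibrated by qPCR (LEU2 against genomic LEU3). For small-scale tests, OD600-normalized plate-reader fluorescence (588/633 nm) was scaled to a w.t. TP-DNAP1 control.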

Molecule | Per-base substitution rate pf p2 [1] | Fold increase [1] | Yeast genomic substitution mutation rate [2] | also measured
B1 | 73.3 (55.2-93.3) ×10^−10 | 12.3 | – | –
B2 | – | – | 1.76 × 10^−10 s.p.b. | p1 mutation rate ([3]; p1 replication by TP-DNAP1 variant): ~7×10^−6 s.p.b.; Mutation rate (s.p.b.) ([3]; I777K, L900S): 7.58 × 10^−6 s.p.b. and 6.87 × 10^−6 s.p.b. and 7.71 × 10^−6 s.p.b.; p1 copy number [4]: ~5
B3 | 12.2 (7.33-17.9) ×10^−10 | 2.0 | – | –
B4 | 5.76 (2.88-9.33) ×10^−10 | 1.0 | – | –
B5 | – | – | 2.68 × 10^−10 s.p.b. | Mutation rate (s.p.b.) [3]: 2.33 × 10^−6 s.p.b. and 4.29 × 10^−6 s.p.b. and 3.24 × 10^−6 s.p.b.
B6 | 8.37 (4.80-12.6) ×10^−10 | 1.4 | – | –
